In patent CN114075285A (REYOUNG SUZHOU BIOPHARMACEUTICAL CO LTD, dated 2022):

Key:
[1] = target: T1, CD38 (human), analyte in Biacore (human, UniProt P28907 43-300, limits assumed); assay: SPR (Biacore 8K), antibody captured on Protein A chip, CD38 as analyte, 25℃
T1 construct: also called 分析物CD38; 人的CD38蛋白

[2] = target: CD38 antigen on the cell surface (Daudi cells; NCI-H929 cells) (human, UniProt P28907 1-300); assay: cell-based or functional assay

| Kd [1] | ADCC reporter (Jurkat-Lucia-NFAT-CD16 + NCI-H929), EC50(μg/mL) [2] | Binder |
| --- | --- | --- |
| 1.04 nM | 0.011 µg/mL | RB0021-S3 (antibody) chain 1: not shown chain 2: DVQMTQSPSSVSASVGDRVTITCRSSQSPEHSNGNTYLHWYQQKPGKAPKLLIYKVSNRFSGVPSRFSGSGSGTDFTLTISSLQPEDFATYFCSQGTHFPFTFGQGTKVEIKRTVAAPSVFIFPPSDEQLKSGTASVVCLLNNFYPREAKVQWKVDNALQSGNSQESVTEQDSKDSTYSLSSTLTLSKADYEKHKVYACEVTHQGLSSPVTKSFNRGEC |
| 1.04 nM | 0.014 µg/mL | RB0021-S4 (antibody) chain 1: not shown chain 2: DVQMTQSPSSVSASVGDRVTITCRSSQSPEHSNGNTYLHWYQQKPGKAPKLLIYKVSNRFSGVPSRFSGSGSGTDFTLTISSLQPEDFATYFCSQGTHFPFTFGQGTKVEIKRTVAAPSVFIFPPSDEQLKSGTASVVCLLNNFYPREAKVQWKVDNALQSGNSQESVTEQDSKDSTYSLSSTLTLSKADYEKHKVYACEVTHQGLSSPVTKSFNRGEC |
